Data from PMC10628450 (Frontiers in Immunology, 2023).

B1: Anti-NKp46 IgG (antibody, V domains shown)
VH: QVQLVQSGAEVKKPGSSVKVSCKASGYTFSDYVINWVRQAPGQGLEWMGEIYPGSGTNYYNEKFKAKATITADKSTSTAYMELSSLRSEDTAVYYCARRGRYGLYAMDYWGQGTTVTVSS
VL: DIQMTQSPSSLSASVGDRVTITCRASQDISNYLNWYQQKPGKAPKLLIYYTSRLHSGVPSRFSGSGSGTDFTFTISSLQPEDIATYFCQQGNTRPWTFGGGTKVEIK
notes: human IgG1 heavy chain constant region (CH1, hinge, CH2, CH3); numbers count on: EU numbering; IgG1 with LALA; also called parental monospecific anti-NKp46 antibody; anti-NKp46 LALA IgG; source: Expi293 cells, transiently transfected, purified (MabSelect); copies: 2 + 2
B2: Anti-NKp46_AB_F06 (bispecific antibody, V domains shown)
VH: QVQLVQSGAEVKKPGSSVKVSCKASGYTFSDYVINWVRQAPGQGLEWMGEIYPGSGTNYYNEKFKAKATITADKSTSTAYMELSSLRSEDTAVYYCARRGRYGLYAMDYWGQGTTVTVSS
VL: DIQMTQSPSSLSASVGDRVTITCRASQDISNYLNWYQQKPGKAPKLLIYYTSRLHSGVPSRFSGSGSGTDFTFTISSLQPEDIATYFCQQGNTRPWTFGGGTKVEIK
notes: human IgG1 heavy chain constant region from its start to the PPSR motif before the AB loop of CH3; numbers count on: EU numbering; Gly4Ser linker; anti-EGFR bovine knob F06 (from an ultralong CDR-H3); human IgG1 heavy chain constant region from the motif after the AB loop of CH3 (printed as NGVS) to its end; as the light chain of m1; IgG1 with LALA; EEMTK of the AB loop replaced by G4S-knob-G4S; …
B3: Anti-NKp46_AB_H05 (bispecific antibody, V domains shown)
VH: QVQLVQSGAEVKKPGSSVKVSCKASGYTFSDYVINWVRQAPGQGLEWMGEIYPGSGTNYYNEKFKAKATITADKSTSTAYMELSSLRSEDTAVYYCARRGRYGLYAMDYWGQGTTVTVSS
VL: DIQMTQSPSSLSASVGDRVTITCRASQDISNYLNWYQQKPGKAPKLLIYYTSRLHSGVPSRFSGSGSGTDFTFTISSLQPEDIATYFCQQGNTRPWTFGGGTKVEIK
notes: human IgG1 heavy chain constant region from its start to the PPSR motif before the AB loop of CH3; numbers count on: EU numbering; Gly4Ser linker; anti-EGFR bovine knob H05 (from an ultralong CDR-H3); human IgG1 heavy chain constant region from the motif after the AB loop of CH3 (printed as NGVS) to its end; as the light chain of m1; IgG1 with LALA; EEMTK of the AB loop replaced by G4S-knob-G4S; …
B4: Anti-NKp46_EF_F06 (bispecific antibody, V domains shown)
VH: QVQLVQSGAEVKKPGSSVKVSCKASGYTFSDYVINWVRQAPGQGLEWMGEIYPGSGTNYYNEKFKAKATITADKSTSTAYMELSSLRSEDTAVYYCARRGRYGLYAMDYWGQGTTVTVSS
VL: DIQMTQSPSSLSASVGDRVTITCRASQDISNYLNWYQQKPGKAPKLLIYYTSRLHSGVPSRFSGSGSGTDFTFTISSLQPEDIATYFCQQGNTRPWTFGGGTKVEIK
notes: human IgG1 heavy chain constant region from its start to the KLTV motif before the EF loop of CH3; numbers count on: EU numbering; Gly4Ser linker; anti-EGFR bovine knob F06 (from an ultralong CDR-H3); human IgG1 heavy chain constant region from the RWQQ motif after the EF loop of CH3 to its end; as the light chain of m1; IgG1 with LALA; DKS of the EF loop replaced by G4S-knob-G4S (results); …
B5: Anti-NKp46_EF_H05 (bispecific antibody, V domains shown)
VH: QVQLVQSGAEVKKPGSSVKVSCKASGYTFSDYVINWVRQAPGQGLEWMGEIYPGSGTNYYNEKFKAKATITADKSTSTAYMELSSLRSEDTAVYYCARRGRYGLYAMDYWGQGTTVTVSS
VL: DIQMTQSPSSLSASVGDRVTITCRASQDISNYLNWYQQKPGKAPKLLIYYTSRLHSGVPSRFSGSGSGTDFTFTISSLQPEDIATYFCQQGNTRPWTFGGGTKVEIK
notes: human IgG1 heavy chain constant region from its start to the KLTV motif before the EF loop of CH3; numbers count on: EU numbering; Gly4Ser linker; anti-EGFR bovine knob H05 (from an ultralong CDR-H3); human IgG1 heavy chain constant region from the RWQQ motif after the EF loop of CH3 to its end; as the light chain of m1; IgG1 with LALA; DKS of the EF loop replaced by G4S-knob-G4S (results); …

These binders were tested against T1, NKp46-His6 (Homo sapiens, UniProt O76036) (assay: BLI; antibodies loaded at 5 µg/ml on anti-human-Fc (AHC) or anti-human-CH1 (FAB2G) biosensors; antigen in solution (EGFR 3.125-200 nM; NKp46 and NKp30 1.6-100 nM) in kinetics buffer (PBS, 0.1% Tween-20, 1% BSA); 25°C; 1:1 binding model). Conditions: both partners purified.
T1 construct: recombinant human NKp46 (natural cytotoxicity receptor); soluble recombinant receptor; probably the extracellular domain; also called (rh) NKp46; recombinant NKp46-His6; source: bought: AcroBiosystems
T1 sequence (O76036 22-258): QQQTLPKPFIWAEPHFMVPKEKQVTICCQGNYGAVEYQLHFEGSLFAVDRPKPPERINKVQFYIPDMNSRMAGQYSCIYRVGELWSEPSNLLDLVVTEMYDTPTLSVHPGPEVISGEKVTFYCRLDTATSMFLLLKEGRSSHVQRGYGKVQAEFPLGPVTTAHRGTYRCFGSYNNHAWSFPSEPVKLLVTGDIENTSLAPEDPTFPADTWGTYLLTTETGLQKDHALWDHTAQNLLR

Binder	Kd [nM]
B1	1
B2	2
B3	3.4
B4	3
B5	3.6
